In data set [1] the test system is anti-inosine antibody Ab10. Briefly: ELONA.
The test system of the next data set is anti-m5C antibody Ab16. The experiment in a line: ELONA.
Data set [2] addresses APOBEC3A (E109A/E109Q as variously stated), no fusion E109A (Homo sapiens) (UniProt P31941). The experiment in a line: cleavage_in_vitro. The following applies: USER assay, 10 mM MgCl2, pH 7, 37C.
For data set [3], the system named is anti-pseudouridine antibody Ab11. The experiment in a line: ELONA. As to conditions: unmodified control.
For the next data set, the system named is anti-m6A antibody Ab01. The experiment in a line: ELONA.
The subject of the next data set is anti-m6A antibody Ab05. Briefly: ELONA.
Data set [4] concerns anti-pseudouridine antibody Ab19. The experiment in a line: ELONA. The following applies: unmodified control.
The next data set has as its system anti-m6A antibody Ab02. Briefly: ELONA.
Data set [5] has as its system Ab05 randomly labeled with DNA adapter (HyNic). The experiment in a line: ELONA. As to conditions: m6A at position 9; random HyNic labeling.
[6] abbreviates: m6A at position 9, plate ELISA, avidity, stated only as subnanomolar.

pKd: −log10 of the molar value. Some results are limits rather than exact numbers.

Sequence of APOBEC3A (E109A/E109Q as variously stated), no fusion E109A (Homo sapiens) (P31941 whole entry E109A, the tested form may be a part): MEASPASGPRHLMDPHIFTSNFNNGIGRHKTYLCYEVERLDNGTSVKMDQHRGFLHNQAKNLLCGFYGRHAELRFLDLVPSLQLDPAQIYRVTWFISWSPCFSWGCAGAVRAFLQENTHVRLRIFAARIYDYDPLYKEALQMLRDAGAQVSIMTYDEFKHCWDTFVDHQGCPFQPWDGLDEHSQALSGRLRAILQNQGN

For “NNNNNNNNINNNNNNNN [inosine degenerate RNA (SEQ ID NO: 2 in Table 4)]”, the pKd (as a rule, the negative decadic logarithm of the Kd, by convention in mol/L) in data set [1] (inosine at position 9, plate ELISA, avidity, stated only as subnanomolar) is > 9.00.

For “NNNNNNNNCNNNNNNNN [m5C degenerate RNA (SEQ ID NO: 4)]”, the pKd in the data set on anti-m5C antibody Ab16 (m5C at position 9, plate ELISA, avidity, stated only as subnanomolar) was > 9.00.

Consider “FAM-DNA oligonucleotide with a single central C”, for which the activity (fold vs APOBEC1) in data set [2] was > 10.

With “NNNNNNNNNNNNNNNN [unmodified degenerate reference RNA (SEQ ID NO: 5)]”, the binding signal (fold weaker than cognate) in data set [3] was 10; in the data set with anti-m6A antibody Ab01 (unmodified control) it was > 100; in the data set with anti-m6A antibody Ab05 (unmodified control), > 100; in [4], 10; with anti-m6A antibody Ab02 (unmodified control), > 100; with anti-m5C antibody Ab16 (unmodified control), > 100. Besides, in data set [1] (unmodified control), the binding signal (fold weaker than cognate) was > 100.

Take “NNNNNNNNANNNNNNNN [m6A degenerate RNA (SEQ ID NO: 1)]”: the pKd in the data set with anti-m6A antibody Ab01 (m6A at position 9, plate ELISA, immobilised RNA, avidity, stated only as subnanomolar, 22C) is > 9.00; in the data set on anti-m6A antibody Ab05 (setting [6]) it was > 9.00; in the data set with anti-m6A antibody Ab02 (setting [6]), > 9.00. Also, in data set [5], the binding signal (fold loss of KD vs unlabeled Ab05) was > 15.

These data come from US20240384326.
